Reference: PMC3644067 (Nature Communications, 2013)

Molecular target: T1, α4 (3–233) E206R (human, UniProt P78318 3-233, E206R)
T1 sequence (looked up): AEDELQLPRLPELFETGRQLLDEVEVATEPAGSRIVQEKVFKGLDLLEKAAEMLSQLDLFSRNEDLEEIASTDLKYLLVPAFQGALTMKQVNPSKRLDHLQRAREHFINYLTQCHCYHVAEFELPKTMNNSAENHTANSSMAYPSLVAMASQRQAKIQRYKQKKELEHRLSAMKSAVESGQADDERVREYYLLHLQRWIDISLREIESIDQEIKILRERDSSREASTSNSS
Experiment: pull-down

binding result: binds
B1: GST-tagged nPP2Ac (1–153) (domain or fragment, human, UniProt P67775 1-153, looked up)
chain: MDEKVFTKELDQWIEQLNECKQLSESQVKSLCEKAKEILTKESNVQEVRCPVTVCGDVHGQFHDLMELFRIGGKSPDTNYLFMGDYVDRGYYSVETVTLLVALKVRYRERITILRGNHESRQITQVYGFYDECLRKYGNANVWKYFTDLFDYL
